Data reported in patent US20240148882A1 (University of California, published 2024).

Columns and labels:
[1] = biological target: soluble fms-like tyrosine kinase-1 (sFlt), unconjugated (UniProt P17948); test: cell-based or functional assay
[2] = biological target: T1, mvsFlt 650 kDa LCR (multivalent sFlt-hyaluronic acid conjugate, low conjugation ratio), P17948
T1 chain: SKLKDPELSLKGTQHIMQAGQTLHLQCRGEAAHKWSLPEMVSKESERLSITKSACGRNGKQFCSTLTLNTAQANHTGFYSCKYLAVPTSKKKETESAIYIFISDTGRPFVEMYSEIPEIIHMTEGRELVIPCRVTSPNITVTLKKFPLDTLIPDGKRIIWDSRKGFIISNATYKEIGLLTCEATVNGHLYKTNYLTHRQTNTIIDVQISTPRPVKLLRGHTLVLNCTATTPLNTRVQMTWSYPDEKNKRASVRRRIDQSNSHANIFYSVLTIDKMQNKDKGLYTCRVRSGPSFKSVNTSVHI

VEGF165 [3] = biological target: T2, VEGF165 (human, UniProt P15692 27-191); test: competition ELISA (unbound VEGF); multivalent HyA conjugate
T2 chain: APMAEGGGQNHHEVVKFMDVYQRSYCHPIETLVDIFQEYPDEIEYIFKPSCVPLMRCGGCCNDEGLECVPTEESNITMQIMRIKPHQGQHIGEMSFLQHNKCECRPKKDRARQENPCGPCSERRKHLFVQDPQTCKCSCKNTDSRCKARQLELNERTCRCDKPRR

VEGF165 [4] = biological target: T2, VEGF165; test: ELISA; multivalent CMC conjugate
VEGF165 [5] = biological target: T3, VEGF165 (human, UniProt P15692-4 27-191); test: binding competition ELISA (VEGF165 Quantikine): free VEGF165 captured by the plate antibody
T3 construct: Treated as one molecule; also called VEGF-A165; human VEGF-A165
Procedure: The mvsFlt conjugates were analyzed using a VEGF₁₆₅ Quantikine Sandwich ELISA (R&D Systems) to examine the effect of HyA conjugation on sFlt inhibition of VEGF₁₆₅. The assay was carried out according to the manufacturer's instructions. Briefly, VEGF₁₆₅ was added to PBS with varying concentrations of sFlt or mysFlt. Free VEGF₁₆₅ that bound to the capture antibodies on the plate surface were detected using a horseradish peroxidase conjugated detection antibody and quantified using a spectrophotometer at 450 nm.

VEGF165 [6] = biological target: T3, VEGF165; test: cell-based or functional assay
VEGF165 [7] = biological target: T2, VEGF165; test: competition ELISA (unbound VEGF)
VEGF165 [8] = biological target: T2, VEGF165; test: ELISA

Row | Binder | IC50 (VEGF165 [5]) [ng/mL] | IC50, HUVEC Survival (VEGF165 [6]) [ng/mL] | also measured
1 | matrix metalloproteinase-7 (MMP-7) (protein) YSLFPNSPKWTSKVVTYRIVSYTRDLPHITVDRLVSKALNMWGKEIPLHFRKVVWGTADIMIGFARGAHGDSYPFDGPGNTLAHAFAPGTGLGGDAHFDEDERWTDGSSLGINFLYAATHELGHSLGMGHSSDPNAVMYPTYGNGDPQNFKLSQDDIKGIQKLYGKRSNSRKK |  |  | protein remaining detectable after 12 h with MMP-7 at 1:1 molar ratio of MMP-7 to sFlt (SDS-PAGE, silver stain) [1]: 6.8%; protein remaining detectable after 12 h with MMP-7 at 1:4 molar ratio of MMP-7 to sFlt (SDS-PAGE, silver stain) [1]: 34%; protein remaining detectable after 12 h with MMP-7 at 1:1 molar ratio of MMP-7 to sFlt (SDS-PAGE, silver stain) [2]: 34.8±1.8% of mvsFlt; protein remaining detectable after 12 h with MMP-7 at 1:4 molar ratio of MMP-7 to sFlt (SDS-PAGE, silver stain) [2]: detectable mvsFlt at 74.8±4.9%
2 | conjugated multivalent VHH anti-VEGF antibody (28 VHH per 860 kDa hyaluronic acid) (other, covalently conjugated to 860 kDa hyaluronic acid) VHH: SNADVQLVESGGGLVQPGGSLRLSCAASGRTFSSYSMGWFRQAPGKEREFVVAISKGGYKYDAVSLEGRFTISRDNAKNTVYLQINSLRPEDTAVYYCASSRAYGSSRLRLADTYEYWGQGTLVTVSSSPSTPPTPSPSTPPGGCDDDDKHHHHHH |  |  | IC50 (VEGF165 [3]): 812 nM
3 | anti-VEGF VHH-CMC conjugate (~17 VHH per ~700 kDa carboxymethylcellulose) (other, covalently conjugated to ~700 kDa carboxymethylcellulose) VHH: SNADVQLVESGGGLVQPGGSLRLSCAASGRTFSSYSMGWFRQAPGKEREFVVAISKGGYKYDAVSLEGRFTISRDNAKNTVYLQINSLRPEDTAVYYCASSRAYGSSRLRLADTYEYWGQGTLVTVSSSPSTPPTPSPSTPPGGCDDDDKHHHHHH |  |  | IC50 (VEGF165 [4]): 8.8 µM
4 | soluble fms-like tyrosine kinase-1 (sFlt), unconjugated (receptor, UniProt P17948 27-328, looked up, domain: first 3 Ig-like extracellular domains; Expressed in High Five insect cells, about 50 kDa; also called recombinant sFlt; soluble Flt-1 receptor; not shown: tag implied by Ni-NTA purification, not described for the tested protein (the ex)) SKLKDPELSLKGTQHIMQAGQTLHLQCRGEAAHKWSLPEMVSKESERLSITKSACGRNGKQFCSTLTLNTAQANHTGFYSCKYLAVPTSKKKETESAIYIFISDTGRPFVEMYSEIPEIIHMTEGRELVIPCRVTSPNITVTLKKFPLDTLIPDGKRIIWDSRKGFIISNATYKEIGLLTCEATVNGHLYKTNYLTHRQTNTIIDVQISTPRPVKLLRGHTLVLNCTATTPLNTRVQMTWSYPDEKNKRASVRRRIDQSNSHANIFYSVLTIDKMQNKDKGLYTCRVRSGPSFKSVNTSVHI | 3.8 | 39.3 | 
5 | mvsFlt 650 kDa LCR (multivalent sFlt-hyaluronic acid conjugate, low conjugation ratio) (other, UniProt P17948 27-328, looked up, thiolated with 2-iminothiolane and linked through EMCH maleimide to 650 kDa hyaluronic acid, domain: first 3 Ig-like extracellular domains; Protein-polymer conjugate; 10:1 sFlt:HyA feed ratio; final sFlt:HyA 5.3 by SEC-MALS; also called 650 kDa LCR mvsFlt; not shown: tag implied by Ni-NTA purification, not described) SKLKDPELSLKGTQHIMQAGQTLHLQCRGEAAHKWSLPEMVSKESERLSITKSACGRNGKQFCSTLTLNTAQANHTGFYSCKYLAVPTSKKKETESAIYIFISDTGRPFVEMYSEIPEIIHMTEGRELVIPCRVTSPNITVTLKKFPLDTLIPDGKRIIWDSRKGFIISNATYKEIGLLTCEATVNGHLYKTNYLTHRQTNTIIDVQISTPRPVKLLRGHTLVLNCTATTPLNTRVQMTWSYPDEKNKRASVRRRIDQSNSHANIFYSVLTIDKMQNKDKGLYTCRVRSGPSFKSVNTSVHI | 3.9 | 41.7 | 
6 | mvsFlt 1 MDa HCR (multivalent sFlt-hyaluronic acid conjugate, high conjugation ratio) (other, UniProt P17948 27-328, looked up, thiolated with 2-iminothiolane and linked through EMCH maleimide to 1 MDa hyaluronic acid, domain: first 3 Ig-like extracellular domains; Protein-polymer conjugate; 30:1 sFlt:HyA feed ratio; final sFlt:HyA 14.1 by SEC-MALS; not shown: tag implied by Ni-NTA purification, not described) SKLKDPELSLKGTQHIMQAGQTLHLQCRGEAAHKWSLPEMVSKESERLSITKSACGRNGKQFCSTLTLNTAQANHTGFYSCKYLAVPTSKKKETESAIYIFISDTGRPFVEMYSEIPEIIHMTEGRELVIPCRVTSPNITVTLKKFPLDTLIPDGKRIIWDSRKGFIISNATYKEIGLLTCEATVNGHLYKTNYLTHRQTNTIIDVQISTPRPVKLLRGHTLVLNCTATTPLNTRVQMTWSYPDEKNKRASVRRRIDQSNSHANIFYSVLTIDKMQNKDKGLYTCRVRSGPSFKSVNTSVHI | 3.3 | 45.4 | 
7 | mvsFlt 300 kDa LCR (multivalent sFlt-hyaluronic acid conjugate, low conjugation ratio) (other, UniProt P17948 27-328, looked up, thiolated with 2-iminothiolane and linked through EMCH maleimide to 300 kDa hyaluronic acid, domain: first 3 Ig-like extracellular domains; Protein-polymer conjugate; 10:1 sFlt:HyA feed ratio; final sFlt:HyA 7.9 by SEC-MALS; not shown: tag implied by Ni-NTA purification, not described) SKLKDPELSLKGTQHIMQAGQTLHLQCRGEAAHKWSLPEMVSKESERLSITKSACGRNGKQFCSTLTLNTAQANHTGFYSCKYLAVPTSKKKETESAIYIFISDTGRPFVEMYSEIPEIIHMTEGRELVIPCRVTSPNITVTLKKFPLDTLIPDGKRIIWDSRKGFIISNATYKEIGLLTCEATVNGHLYKTNYLTHRQTNTIIDVQISTPRPVKLLRGHTLVLNCTATTPLNTRVQMTWSYPDEKNKRASVRRRIDQSNSHANIFYSVLTIDKMQNKDKGLYTCRVRSGPSFKSVNTSVHI | 4.5 | 46.9 | 
8 | mvsFlt 1 MDa LCR (multivalent sFlt-hyaluronic acid conjugate, low conjugation ratio) (other, UniProt P17948 27-328, looked up, thiolated with 2-iminothiolane and linked through EMCH maleimide to 1 MDa hyaluronic acid, domain: first 3 Ig-like extracellular domains; Protein-polymer conjugate; 10:1 sFlt:HyA feed ratio; final sFlt:HyA 5.2 by SEC-MALS; not shown: tag implied by Ni-NTA purification, not described) SKLKDPELSLKGTQHIMQAGQTLHLQCRGEAAHKWSLPEMVSKESERLSITKSACGRNGKQFCSTLTLNTAQANHTGFYSCKYLAVPTSKKKETESAIYIFISDTGRPFVEMYSEIPEIIHMTEGRELVIPCRVTSPNITVTLKKFPLDTLIPDGKRIIWDSRKGFIISNATYKEIGLLTCEATVNGHLYKTNYLTHRQTNTIIDVQISTPRPVKLLRGHTLVLNCTATTPLNTRVQMTWSYPDEKNKRASVRRRIDQSNSHANIFYSVLTIDKMQNKDKGLYTCRVRSGPSFKSVNTSVHI | 2.2 | 44.9 | 
9 | mvsFlt 650 kDa HCR (multivalent sFlt-hyaluronic acid conjugate, high conjugation ratio) (other, UniProt P17948 27-328, looked up, thiolated with 2-iminothiolane and linked through EMCH maleimide to 650 kDa hyaluronic acid, domain: first 3 Ig-like extracellular domains; Protein-polymer conjugate; 30:1 sFlt:HyA feed ratio; final sFlt:HyA 17.1 by SEC-MALS; not shown: tag implied by Ni-NTA purification, not described) SKLKDPELSLKGTQHIMQAGQTLHLQCRGEAAHKWSLPEMVSKESERLSITKSACGRNGKQFCSTLTLNTAQANHTGFYSCKYLAVPTSKKKETESAIYIFISDTGRPFVEMYSEIPEIIHMTEGRELVIPCRVTSPNITVTLKKFPLDTLIPDGKRIIWDSRKGFIISNATYKEIGLLTCEATVNGHLYKTNYLTHRQTNTIIDVQISTPRPVKLLRGHTLVLNCTATTPLNTRVQMTWSYPDEKNKRASVRRRIDQSNSHANIFYSVLTIDKMQNKDKGLYTCRVRSGPSFKSVNTSVHI | 2 | 43.2 | 
10 | mvsFlt 300 kDa HCR (multivalent sFlt-hyaluronic acid conjugate, high conjugation ratio) (other, UniProt P17948 27-328, looked up, thiolated with 2-iminothiolane and linked through EMCH maleimide to 300 kDa hyaluronic acid, domain: first 3 Ig-like extracellular domains; Protein-polymer conjugate; 30:1 sFlt:HyA feed ratio; final sFlt:HyA 15.4 by SEC-MALS; not shown: tag implied by Ni-NTA purification, not described) SKLKDPELSLKGTQHIMQAGQTLHLQCRGEAAHKWSLPEMVSKESERLSITKSACGRNGKQFCSTLTLNTAQANHTGFYSCKYLAVPTSKKKETESAIYIFISDTGRPFVEMYSEIPEIIHMTEGRELVIPCRVTSPNITVTLKKFPLDTLIPDGKRIIWDSRKGFIISNATYKEIGLLTCEATVNGHLYKTNYLTHRQTNTIIDVQISTPRPVKLLRGHTLVLNCTATTPLNTRVQMTWSYPDEKNKRASVRRRIDQSNSHANIFYSVLTIDKMQNKDKGLYTCRVRSGPSFKSVNTSVHI | 4.7 | 44.4 | 
11 | conjugated multivalent scFv anti-VEGF antibody (31 scFv per 860 kDa hyaluronic acid) (other, covalently conjugated to 860 kDa hyaluronic acid) scFv: MEIVMTQSPSTLSASVGDRVIITCQASEIIHSWLAWYQQKPGKAPKLLIYLASTLASGVPSRFSGSGSGAEFTLTISSLQPDDFATYYCQNVYLASTNGANFGQGTKLTVLGGGGGSGGGGSGGGGSGGGGSEVQLVESGGGLVQPGGSLRLSCTASGFSLTDYYYMTWVRQAPGKGLEWVGFIDPDDDPYYATWAKGRFTISRDNSKNTLYLQMNSLRAEDTAVYYCAGGDHNSGWGLDIWGQGTLVTVSSSPSTPPTPSPSTPPGGCDDDDKHHHHHH |  |  | IC50 (VEGF165 [3]): 47.7 nM
12 | single-chain variable fragment (scFv) anti-VEGF antibody, unconjugated (scFv) scFv: MEIVMTQSPSTLSASVGDRVIITCQASEIIHSWLAWYQQKPGKAPKLLIYLASTLASGVPSRFSGSGSGAEFTLTISSLQPDDFATYYCQNVYLASTNGANFGQGTKLTVLGGGGGSGGGGSGGGGSGGGGSEVQLVESGGGLVQPGGSLRLSCTASGFSLTDYYYMTWVRQAPGKGLEWVGFIDPDDDPYYATWAKGRFTISRDNSKNTLYLQMNSLRAEDTAVYYCAGGDHNSGWGLDIWGQGTLVTVSSSPSTPPTPSPSTPPGGCDDDDKHHHHHH |  |  | IC50 (VEGF165 [7]): 89.8 nM
13 | single-domain camelid (VHH) anti-VEGF antibody, unconjugated (VHH) VHH: DVQLVESGGGLVQPGGSLRLSCAASGRTFSSYSMGWFRQAPGKEREFVVAISKGGYKYDAVSLEGRFTISRDNAKNTVYLQINSLRPEDTAVYYCASSRAYGSSRLRLADTYEYWGQGTLVTVSS |  |  | IC50 (VEGF165 [8]): 761 nM; IC50 (VEGF165 [7]): 758 nM
